Laboratory results taken from the DeepSol protein solubility set.

Assay: soluble on expression in E. coli; label from the status in PepcDB or PDB records

With “MAHHHHHHMKRIVAPRRWSAINRVEHPPLMPKQLLQSVCGGLRWLESKSLAEFLAKRAIEEGFPCTKKQQRIFDARPPSSRPALRKSRLHKKCPARRSGGDVQRTEGSLEAPRTTGASGALVSSGAALALNSSAFDALVPLAKRKRLVSYDVLDCTFGSGFHTGVVLENGRPYTRVVAMDCDVEATVSAREIVDEFGADRFRFYARPMSEAKAMFGERSFDAVMIDPGPSSTQLENPERGFLLNDESDHALDMRYGPTHGLGALEYLNTVPQHALSGALASYELLTPQQSMKLARAIRQRRPFDGAQRVLEAVEEAGNELPEEGWGTQGSRRKTSMSWNFMTSLRCIVNHERHELSEALQNALLLLRTDGRLVVFSRLPWEEKLISTTISQHPHALLSYSEAIPIEDVQEHGHSRHTKMWIVTRTQGSSYVLKNSQTLTGEAVQESSMRWMSGLFAGQTFGFPANNFTFENKDGKDWAAVRRNKNSPPFDSDDDPRG” as the sequence, how does the “soluble on expression in E. coli” value read?
Its value is “not soluble”.

With “MAHHHHHHMKTLAKKTLQGGVSGKCGSQIIIAHGLLGNSTNWMSVGRRLAAHDGVRGRLEEIHMLDMRNHGESPHFNAHTNATMASDIEHFVLQQQRQWQSRAGAEGDGGIVLIGHSMGGFAVMGSMLRRANETSLLLQSGVEELEQRCKRGDYYGWCDEQGNAAEMRAVNRAMGLPETQPLYDILYDCKGDNVARPPRVKAVVIVDITPSTALGTHRQHGQNSSETLDAMVAADLSRVHSFGDGNAELERVGVSNKAMRDFLLTNLRLDPRTKEATWRCNLPVLRADYNSIALGVSGWFLSASEKVSRDRGGELVAPLRCSLPTLFVFGQNSPYNTPEDRRLIPRFFSNAIEVEVEGAGHFVHYEKMQEFVNVVVPFLTEYL” as the sequence, how does the “soluble on expression in E. coli” value read?
The value was “not soluble”.

With “MAHHHHHHMLRSTLTSLNTFLTSSVATPPISVIRTGPKWWADPERMVRQKLMYFTLGVDQLPLRRTAVIQRDLQRFHMCKPPPRVGDSTGYKRSRAAQLNTWYRRIQYQEYHMQHLFTRHVWGLLRVYPGNTTKIQGKADDGYVGYDSVPFHRYNRAPLPFPARELYERRK” as the sequence, how does the “soluble on expression in E. coli” value read?
Its value is “not soluble”.

Which “soluble on expression in E. coli” value does the source give for “MAHHHHHHMLRVIVRRLAWRPAAIQHLPDLGSKDAPKKTEDTQRQYRPLSLRARQALAEKSDEVQYHVITQDWFGQRVDTFLTQHHPEWSYETMKTLVQQGHIYRYRKNGKKRFTRITDRLEFDELLVVPTPVFYERQLAPPTGVLQESKKPTHFKLSSQVREMAHNMVLFKNEHVIVINKPHGVPMMPTSDPQEMNIAAMLSAWKYTNSTKPIVCHNLDKETSGCVVLARSKNAHRMLARMFVKRVVPNSVYWGFCVGKPSVNFGRIRMHFEMTRGTKGDIIVARPSPTKTSKVGIAEFVVNASALEFGSFISFYPLTTRRHQERIMAAHALRSPLLGDAKYGGESAFPSSMSLFWDPEDKGLPLHLHHRKIQLPYKNSTGEFVCVTAPLPIHMEKTFKKLGWPCDVDDPLIPG” here?
The value was “not soluble”.

With “MAHHHHHHMLSDNDLTFHIPSAGLRRMDAWTAPNPSVFSHLHLVGNPDWMSSFSASPQVAAARPALAPPAPVAIEPSAPRPLAAPAAIDAPAPATKKSFLSMFYRGSSNTVSSSVMPPKTSSASFAPMSAPPKALDAFDTPMQRALPVDAQLSVEHLSKLDAVDATISAAPRREPPHPMALGSDTWNALSSVPVPAKTAAGSARLLAPPASIDAVFSRDSKPLWSDLSFASRFRSTAPTLEAFRNAPPAPILSTPPRSPQHQATSSTATVATAFIPVPPKPVTASPLRDTAVSSVEAAAPATMPAARREPRAMAHPLVPVGEDAPAVVTPLLKPVQEIPMVSSKSANLAPSTVNATPPVWGPEPLSLASREPEPSALALPTEFAKSISRPTMQEAQRDEARAAANVRNFISTLFSGSGSDEMDSSTAGNRKADGFNALEFVTNRRGAQAKASQPVDYSTFFNTSLFEDDHDEDSEEGLEKLRRVVLMVMQSAKNSEGTCVSQPTSQSCRRGGGVDATGVAALTTFPSKYTEFSASYQTANNNNADDNEWMQFAR” as the sequence, how does the “soluble on expression in E. coli” value read?
The value was “not soluble”.

With “MAHHHHHHMLSEEEQATLLKYYSTVKLHETQMDQLAQAYWAATREERGEIAKVYAHTFVDPTFVQRLIFFHDYRMSLTAAGAGLSSSTGAAVGTGSSFAGQQSGSESANSPLMAGPPSSFMAESPTTAANHAPRRTHAQHLLRSTIQEHFPKLTGPGPYALQFGCVQSEKEREEVIELYSSQFLHPDPPELHRIVALPSSFSTRTRKRISGSYSWYLRCLATQELVCAVTVTVHQQETIRFAEMPLFATGVGYKKNGFGRLLNAALLAWCAEVGLEFIMISADVQAIPFWRHLGYRAMTRGEKNRIDFFYQHDCCKFKGAETMIGYCNVDRGNGSLSGGVGRRAFHSGGSTEVLHRSVRQVLAQLPRFVVEGPAKLPTE” as the sequence, how does the “soluble on expression in E. coli” value read?
Its value is “soluble”.

With “MAHHHHHHMLSHSSQLCSLWIESARVIRLDHCRCPGRLVSTGLGVSSEIRKTNLNGKSYTLDPVEMEPVFGVNRASDFSEKGGLCSTNETNEKNVLLSGGDIVSRNQKEVDKVERVALVAEKEHEEEEPLARNLHNTIGPTPYRVSWYDYGSVSPSKRFTYWAYRRLKELPTDWQEYYRRMLYQEISAARYVNQTWDCFMMVVDGYRKAKWILKKYGISIDESLIPKPYNNFWEETTHEERVWAHRRSHQMKELQALYRDEDELVFGAHTMDRREVSHGSIKNVQTGMQGGTPVHALDLPAPCESEIKTSPQIEDMSSALMSSIEDDKLWNPVLRSRIHTRRSREEVELYSFEDDEEDENSPS” as the sequence, how does the “soluble on expression in E. coli” value read?
Its value is “soluble”.

With “MAHHHHHHMMAIRNMLRKIIIKHGKVANAVWVPKRFINMNPTGNEEKVTQERNKRDYILSLDEALYLSKEMGIKTTTEIQKIIMRSPPFSPDMSPFLIDNFLSSANKDRHSDEIDQIDLKLKELQERDSNPEESEQGEDEGAVENSKINISHDREENIINKILIDKFNKKRGKTFIHNDMEWLEESEGIGTNKRSCAYVYIKRGSGIVKVNDEEDLYIRWPYFYNRMDVLEPFYVTNTSCVFDVFIKLKGGGISGQSKAARLAIGRALLNACPLIYDDLQQHHILYEDMRQKFPKMPGRKKSRAMKQWSKR” as the sequence, how does the “soluble on expression in E. coli” value read?
Its value is “not soluble”.

Which “soluble on expression in E. coli” value does the source give for “MAHHHHHHMMCLKLNLLDHVFANPFMNAAGVLCSTEEDLRCMTASSSGALVSKSCTSAPRDGNPEPRYMAFPLGSINSMGLPNLGFDFYLKYASDLHDYSKKPLFLSISGLSVEENVAMVRRLAPVAQEKGVLLELNLSCPNVPGKPQVAYDFEAMRTYLQQVSLAYGLPFGVKMPPYFDIAHFDTAAAVLNEFPLVKFVTCVNSVGNGLVIDAESESVVIKPKQGFGGLGGKYILPTALANVNAFYRRCPDKLVFGCGGVYSGEDAFLHILAGASMVQVGTALQEEGPGIFTRLEDELLEIMARKGYRTLEEFRGRVKTIE” here?
Its value is “not soluble”.

With “MAHHHHHHMMRRVPITVSFDALDTLIQITRGLGYQYRSSYASFLLAHGIDLDATCPNATCEAVQELALKAIRDQVRAERAAWTRSANPKEMPIGGDTDEELRSFWARVLRQTYTCATLYDGAAADVVQRIEELWGDHHNEVRCFEDYVLFDQFSSTKAHSWCPEGLRTLQCLRKWNQVQMSCDESAVRPGLADTKPASDLDVFSPSSAAASPVLFLAAPPFVVSNMDPRIRGVFMQLGAFEAGESGEPPLLSRIISARDTGYAKPSPAGILTGVRDIAASYRAACQSCGACDAGVDVHRHVHVGDADADRVACERAGCHFVQCDPATGVTWGLLQAKLQELEALYGSAPLPH” as the sequence, how does the “soluble on expression in E. coli” value read?
The value was “not soluble”.

For “MAHHHHHHMNDIYARRLAQATMFHQLMRCHGTLWAATQVTKEQMDYNFIREEFMRVNGRRAMPLLLGAAANENLHQLHLSHLSEHCAWGESARALAVQRQTPLSQRVAALGRMAETIHQVKTASTVQNLFNEQISCMEGISSFEEEPLIEGE”, which “soluble on expression in E. coli” value is on record?
Its value is “not soluble”.

Which “soluble on expression in E. coli” value does the source give for “MAHHHHHHMNLNVSKDVNNYMKINGIIKKVDIKRYYNKKLNNWSYEDNAKEFDKKDEKEYGSKYEYNNKFINEEEKKDEEKKYRYDEKIHKGLYSEDNSTSMNNRYNNNESTYKMPKEILNRHEKIDLNSLPIDEEIINNLKIILNIEKLYMYQYIIYNEILKNSKHLLIYNKTGTGKTLSYLLPLIQKLINDKFDCNKKVLIITQNIYLCKQLYIYILSIYPTLNVCILSDEKESYNMNNNINNDIIVNIKRNNINPNDKENNDMCDEKYGIHFYLCTPNKLEYFIKNYKNKSRNDKNVMNNILNNINTIVIDEFDYIVEYRKNILNFFFKKDLFNEIHNNNNIRDKNRFNHDIFNKSNYNIYLFTANINEVIKKKIYEHLNGFVFFDFINGIKEHIQKQVAEQHNFNIDVLKNSENVVQLLNKENKNESLCNLNITHFVCKINSASKYKYVCYFLEEFFFHKQKISQKVYNDMVYDEYDKLNYRNMIPMEENKFVNNSEKEGNMKRSNADKINKCIIFANTKEEVEKLYEISLLKPHAVMMHSELLTIQKNENINLFKVGKKNVLITTDIISRGLDIDNVIFILNYSPPTSPNDYIHRSGRTGRGKEKGICLTMYHKYEYRNVDKIMKYTKNKFEVILCPK” here?
Its value is “not soluble”.

With “MAHHHHHHMNNTNIVTFSPKLKYSINDVVHRDREVKEYHLQIDREASDILFFCTIKPKQVSELLEGEVKINLKREVGEQYSVASEDGTHVCDFSKGNLNISPSAGFNYKHDRSVSCIYLVIPNKLFLIKLPKLNIVTEQFLPNLVSCLSEYSFINFNLKHVEESDDSISLHLSFGDFKKNFNVSCAFDLSEYAVEPCSLGKKGIVTFYFNA” as the sequence, how does the “soluble on expression in E. coli” value read?
The value was “not soluble”.

For “MAHHHHHHMNVFDCTLCVATTISQFLVDEVMKQVSLYGGFRHVVRCHGNPQEDFMDVKQSGEPIVLLIANQAGREALKFLCDDYHLPKEQRRVLWIHSISSGLDSYKLNELVKELQDIPLTNARGCYSSILAEHVMYSMLYFYRQTWRSLASRAEHKWDPFLMVELRGRKVGIIGYGDIGRASAKLLSAFGMEVTGVKRSASTKEVDEYGVRLVHGDAERERVLRESDFVVNILPGTEETKRLFNKELFSMMKPSAVYINIGRGITQNEDDLACALRDGVIRGASVDVFEREPLPAESPLWDISDDKILLTYHNAVLSDDFCKKAIDCFMLLARDFGSDGFASNVIQIDKFYCG”, which “soluble on expression in E. coli” value is on record?
The value was “soluble”.

For “MAHHHHHHMNVKVEEGHPYNSYAEIKKRKTKKKKYIQNGRAGNNVEDNVDDNVEDNVGNNVDDNVEDNVGNNVDDNVDNNVDDNVKNRLSPKNNEKSNPRHKKKNTSKSPICDGRKKDIEFHTLYESDEKNNMVSRRSSVESIGEEKDMKADVKKNDINYKVKLNTLMLQSYLHKSYDKVSNILKKTSQTFMKKSLSYETEKVDDKTGNNIQNNNNEKNETHGNINYDQDDFVQNFNKIFNNMIENPTNDLSEEEKKFFEQNSQCINKMLHENASCQKNKKEKILKKYKKKIIENKDISSLYDKFKELLDERTLLFKLIIYYKNINYNYKQHIDKIQHSYDILISENEQLNLNNITLKKHIDLFRKGDNIKRDDNEYVK”, which “soluble on expression in E. coli” value is on record?
The value was “soluble”.

For “MAHHHHHHMPADSTATAREVPIDTVALQLDAEMAQMRLQRQRYSTLCTRKNRLQAHVDELNAQGKDLTFQRQREQTRSAQELEHGLASSSTSLPEISRTPGDQAQLPAEVLGGALQELTACITERRELLQHLRDGSHDCLKLRDARFAKCSLSTVAGLDDHVASQSGIHASDTTAVIAGRGEAPTRCAARNPVSDSAVTSAAPASGLRHVEEGLAKAHQALCRGEEKALAEREYLLLLLQQCAQPQQLQQGRGRLACRQMAD”, which “soluble on expression in E. coli” value is on record?
The value was “not soluble”.

With “MAHHHHHHMPCNVSCSTSPNSVTGEPRFIMDFSMNKVAKYFRLLGYDTLCSRDVPQANLIPTACAEGRILVTCSRPLARSVQLHNQRVRTMRLGIAKAMTGAAHHVIAYDSDGESIYSEDSEEVDVELRCLFTQQWCSGEFKRAMIELIQQAGVTYDLNRVFRRCVTCNELLVTMEKEEVRGRVVAKIYEIYDEFTECPTCRKVFWGFDGVFAINYKSFRSLNLLRSLCICAGAPVEEERTRLNRLRCFRSFPRIAKVLIFSYLEDVDLANMTVVFPALRDLAEEVQASRQTGEPVRKMQLRKH” as the sequence, how does the “soluble on expression in E. coli” value read?
Its value is “not soluble”.

With “MAHHHHHHMPFTEVYGVEQFRDIANDPTLTVVCFSAVWCGPCKTIEKDLDRLTYEFASVRFAKVDADNNTDIVSKCRVMQLPTFMLVRAGQMLGYVIGADLAQLKAKIREEANKS” as the sequence, how does the “soluble on expression in E. coli” value read?
Its value is “soluble”.
